No end group written: not given here.
Biological target: calmodulin (Homo sapiens (Human))
Assay: not stated (off-rate from calmodulin)

Row | Binder | koff
1 | CEIKRAAAINLKALAALAKKILIK (also: fluorescein label, site not given here) [TAG 4 peptide, fluoresceinated] | < 0.0001 s⁻¹
2 | CEIKRAAAINLKALAALAKKIL (also: fluorescein label, site not given here) [TAG 2 peptide, fluoresceinated] | < 0.0001 s⁻¹
